Results: patent US20250043302A1, “MUTATED HYDROXYPHENYLPYRUVATE DIOXYGENASE POLYPEPTIDE, AND CODING GENE AND USE THEREOF” (BEIJING DABEINONG BIOTECHNOLOGY CO., LTD., priority 2021, published 2025)

Legend:
Assay type in all cases: in vivo
[1] = tested on: Arabidopsis thaliana T1 plants; experiment: Mesotrione tolerance of transgenic Arabidopsis thaliana T1 plants (spray, bleached leaf area grade, damage score); parameters: Scores: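 damage score 0-100 computed as Σ(N×S)/(T×M)×100 over grades 0-3 with higher meaning more damage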; conditions: Arabidopsis thaliana T1 plants; for Grade 0 (classification and statistics of the grade of pesticide damage; number of plants) / Grade 1 (classification and statistics of the grade of pesticide damage; number of plants) / Grade 2 (classification and statistics of the grade of pesticide damage; number of plants) / Grade 3 (classification and statistics of the grade of pesticide damage; number of plants): 16 plants
In short: (§1)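 Damage graded 0–3 from the proportion of bleached leaf area 7 days after spraying. Plants were glufosinate-selected T1 lines, 18 days after sowing, plus vector and wild-type controls. Rates: mesotrione 52.5–420, isoxaflutole 35–280, topramezone 25–200 g ai/ha, with water (0×).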

[2] = tested on: Arabidopsis thaliana T1 plants; experiment: Isoxaflutole tolerance of transgenic Arabidopsis thaliana T1 plants (spray, bleached leaf area grade, damage score); parameters: Scores (pesticide damage): scale not given here; conditions: spray, Arabidopsis thaliana T1 plants; for Classification and statistics of the grade of pesticide damage: Grade 0 (number of plants) / Classification and statistics of the grade of pesticide damage: Grade 1 (number of plants) / Classification and statistics of the grade of pesticide damage: Grade 2 (number of plants) / Classification and statistics of the grade of pesticide damage: Grade 3 (number of plants): 16 plants
In short: as §1

[3] = tested on: Arabidopsis thaliana T1 plants; experiment: Topramezone tolerance of transgenic Arabidopsis thaliana T1 plants (spray, bleached leaf area grade, damage score); conditions: 7 DAT, Table 4; for Classification and statistics of the grade of pesticide damage: Grade 0 / Classification and statistics of the grade of pesticide damage: Grade 1 / Classification and statistics of the grade of pesticide damage: Grade 2 / Classification and statistics of the grade of pesticide damage: Grade 3: number of plants; for Scores: pesticide damage score 0-100
In short: as §1

[4] = isoxaflutole 35 g ai/ha (0.5x field concentration)
[5] = isoxaflutole 70 g ai/ha (1x field concentration)

B1: HvHPPD-02: nucleotide sequence encoding wild-type Hordeum vulgare HPPD; vector DBN11762 (nucleic acid)
DNA: ATGCCGCCGACGCCCACCACCCCAGCAGCTACCGGAGCTGCGGCTGCAGTAACCCCTGAGCATGCTCGGCCCCACAGGATGGTGAGGTTTAATCCAAGATCAGATCGTTTTCATACACTCTCGTTCCACCATGTTGAGTTCTGGTGCGCCGACGCGGCTTCAGCGGCCGGGAGGTTCGCCTTCGCGCTGGGGGCCCCTCTTGCCGCGCGTAGTGATTTGTCTACTGGGAATTCAGCGCACGCGTCCCAGCTTCTCCGAAGCGGCAGTCTCGCCTTTCTCTTCACTGCACCATATGCAAATGGATGTGATGCAGCAACTGCTTCCCTGCCGAGCTTTTCTGCGGATGCCGCGAGGCGATTCAGTGCTGACCATGGGATCGCCGTCCGGTCAGTTGCTCTTAGAGTGGCTGATGCTGCTGAGGCATTCAGGGCTTCAAGGCGTCGTGGTGCACGCCCGGCGTTTGCCCCGGTTGATCTTGGGCGGGGGTTTGCTTTTGCAGAGGTGGAGCTGTACGGCGACGTGGTGCTCCGATTTGTTTCTCACCCGGACGGCACTGATGTGCCCTTCTTGCCAGGATTTGAAGGTGTGACCAACCCTGATGCCGTGGATTATGGACTCACAAGATTTGATCATGTGGTTGGCAATGTTCCTGAATTGGCACCTGCTGCCGCTTACATCGCAGGTTTTACTGGCTTCCATGAATTTGCTGAATTCACGGCGGAGGATGTTGGTACAACTGAGTCAGGGCTGAACAGTGTTGTTTTAGCCAACAACTCAGAAGGAGTTCTCCTTCCCTTGAATGAACCTGTTCATGGAACCAAGCGCCGCTCCCAAATTCAAACATTTCTTGAGCACCACGGCGGCCCTGGTGTTCAACATATTGCTGTCGCCTCTAGCGACGTCCTGCGTACATTACGCAAGATGAGGGCTCGGTCCGCAATGGGTGGTTTCGACTTCCTCCCTCCACCATTGCCAAAATATTATGAAGGCGTCAGAAGACTTGCAGGAGATGTCCTCTCTGAAGCTCAGATCAAGGAGTGCCAAGAACTTGGCGTCTTGGTTGATAGAGATGACCAAGGAGTACTTCTGCAGATATTTACAAAACCCGTTGGTGACAGGCCAACTCTTTTCCTGGAGATGATTCAGAGAATTGGCTGCATGGAGAAAGATGAAAGAGGCGAGGAGTACCAGAAGGGTGGTTGTGGAGGCTTTGGAAAAGGAAACTTCTCAGAGCTGTTCAAGTCCATAGAAGATTACGAGAAAAGTCTAGAAGCCAAGCAGTCTGCTGCAGTGCAAGGTTCCTGA
modifications: HvHPPD-02 Nucleotide Sequence
notes: vector DBN11762
Resistance evaluation ([1]; mesotrione 52.5 g ai/ha): Non-resistant
Scores ([1]; mesotrione 52.5 g ai/ha): 100
Grade 0 (classification and statistics of the grade of pesticide damage; number of plants) ([1]; mesotrione 52.5 g ai/ha): 0
Grade 1 (classification and statistics of the grade of pesticide damage; number of plants) ([1]; mesotrione 52.5 g ai/ha): 0
Grade 2 (classification and statistics of the grade of pesticide damage; number of plants) ([1]; mesotrione 52.5 g ai/ha): 0
Grade 3 (classification and statistics of the grade of pesticide damage; number of plants) ([1]; mesotrione 52.5 g ai/ha): 16
Resistance evaluation ([1]; mesotrione 105 g ai/ha): Non-resistant
Scores ([1]; mesotrione 105 g ai/ha): 100
Grade 0 (classification and statistics of the grade of pesticide damage; number of plants) ([1]; mesotrione 105 g ai/ha): 0
Grade 1 (classification and statistics of the grade of pesticide damage; number of plants) ([1]; mesotrione 105 g ai/ha): 0
Grade 2 (classification and statistics of the grade of pesticide damage; number of plants) ([1]; mesotrione 105 g ai/ha): 0
Grade 3 (classification and statistics of the grade of pesticide damage; number of plants) ([1]; mesotrione 105 g ai/ha): 16
Resistance evaluation [2, 4]: Non-resistant
Scores (pesticide damage) [2, 4]: 100
Classification and statistics of the grade of pesticide damage: Grade 0 (number of plants) [2, 4]: 0
Classification and statistics of the grade of pesticide damage: Grade 1 (number of plants) [2, 4]: 0
Classification and statistics of the grade of pesticide damage: Grade 2 (number of plants) [2, 4]: 0
Classification and statistics of the grade of pesticide damage: Grade 3 (number of plants) [2, 4]: 16
Resistance evaluation [2, 5]: Non-resistant
Scores (pesticide damage) [2, 5]: 100
Classification and statistics of the grade of pesticide damage: Grade 0 (number of plants) [2, 5]: 0
Classification and statistics of the grade of pesticide damage: Grade 1 (number of plants) [2, 5]: 0
Classification and statistics of the grade of pesticide damage: Grade 2 (number of plants) [2, 5]: 0
Classification and statistics of the grade of pesticide damage: Grade 3 (number of plants) [2, 5]: 16
Classification and statistics of the grade of pesticide damage: Grade 0 ([3]; topramezone 25 g ai/ha (1×)): 0
Classification and statistics of the grade of pesticide damage: Grade 1 ([3]; topramezone 25 g ai/ha (1×)): 0
Classification and statistics of the grade of pesticide damage: Grade 2 ([3]; topramezone 25 g ai/ha (1×)): 0
Classification and statistics of the grade of pesticide damage: Grade 3 ([3]; topramezone 25 g ai/ha (1×)): 16
Classification and statistics of the grade of pesticide damage: Grade 0 ([3]; topramezone 100 g ai/ha (4×)): 0
Classification and statistics of the grade of pesticide damage: Grade 1 ([3]; topramezone 100 g ai/ha (4×)): 0
Classification and statistics of the grade of pesticide damage: Grade 2 ([3]; topramezone 100 g ai/ha (4×)): 0
Classification and statistics of the grade of pesticide damage: Grade 3 ([3]; topramezone 100 g ai/ha (4×)): 16
Scores ([3]; topramezone 25 g ai/ha (1×)): 100
Scores ([3]; topramezone 100 g ai/ha (4×)): 100
Resistance evaluation ([3]; topramezone 25 g ai/ha (1×)): non-resistant (non-resistant plants (scores 68-100))
Resistance evaluation ([3]; topramezone 100 g ai/ha (4×)): non-resistant (non-resistant plants (scores 68-100))
